Laboratory results: a protein production outcome set (Wang et al. 2014)

Assay: label from the status in PepcDB records

Question: For “MLLSYVYKLNPSLKQAETMERWLHLLRLQYNFRVRERTEAYEQAKAPVMGNYCILQTQAECCPLTCSVSKGALYGNPWSTKGKKRSPLAQQDANLVDLKKERPWYGEICYHVLQQMLKQVDTAFVRFFKGLGKYPKTKRRGKLRSFTYPTGDVGFKGNKVRLPGLGWMRFFQSRPFPLGFKIRSTTVRKKANGFYISVLLQDDTVPQASASQQIQTALGVDLGIKKLISLSTGETIANPRFYKQMERKRSRLNWAANRKVLGSRRRQKAYQQIAQLEQKVTNQREDYQWKIAHNLVKRFDLIVFENLNVQGMMARCKPKQDESGKYLRNGQSAKSGLNKAIADAAWGSLKLKVKILSERAGVLVHEVKPNFSSQECSECGYISPTNRDKEKFLCEHCGHHADADIDAAKVILKRGLSELGINLDAVSGVPRKQDKSTSKEPVARQGISTALAVEPGNPHQVEERLSN”, which protein production is on record?
Answer: failed

Question: Which protein production does the source give for “MLLTIFSILAILCLVLYFYCMVILHLKNKGVYHPMTHAVSDYGIGQNKSYFQLAGLANTFRNLFLILSLIFWKYSFSFKKEAVLLLILAIIGYAGVALFPTDIEGSKRTVKGIIHLLFAILQFTALAIFIFNVTEVLKPLNATLFLIASYIKIVVEVGLYGLVIALFLPFVKKYFGLFERLFLYSSNLYILLLCVMMIRY” here?
Answer: failed

Question: With “MLLVMGAHESGLDRARLQSLYEQLVATNEDETEKLAASGHSTGLVASEWARFLAPFDFGYRLVALQRESKRVAAALTRALYGIDTSGASEHDPLWAVEHRVLPVPVTDRLLFCEMRFLLVLALSRRLWMRLERVDPLGQENPFPRDAEIIERVEDLARQSRERLALLAERSPEALNAGKQEAHDCIEDLRTKETRAAEQVAGFAQALGDAALLEKVWHALVDEIAQNRQLNHALLQTLCQWVLMLIGADTEVPSSASCSDE” as the sequence, how does the protein production read?
Answer: not failed

Question: With “MLLYMRFTENFERAKKEALMSLEIALRKGEVDEDIIPLLKKINSIENYFTTSSCSGRISVMEMPHFGDKVNAKWLGKWHREVSLYEVLEAIKKHRSGQLWFLVRSPILHVGAKTLEDAVKLVNLAVSCGFKYSNIKSISNKKLIVEIRSTERMDVLLGENGEIFVGEEYLNKIVEIANDQMRRFKEKLKRLESKINALNR” as the sequence, how does the protein production read?
Answer: not failed

Question: Which protein production does the source give for “MLMLEREKLARLIKKRSLKVADEPVFKLSSGKLSRYYVDLKQITFDPEGDYLIGKAMYELVKEFNPDACGGLTLGADPIAYAIAFVSLMDSNPIKPFVVRKEPKGHGMKRQIEGLLNPGERVAVLEDVVTTGSSALKAVKACREYGLEVIGVFAVVDREEGGRENIEKEGIPLYSLFKLSELL” here?
Answer: not failed

Question: With “MLNDQEVLSMSSVSLSPLFRRSIGFDRLNDLFDYAMQSETPNYPPYNIEKDGENNYRILIASAGFDQDELRIHLENQVLTISGQPDSEQVDKNIEYLHKGIARRAFKLSLRLDEHIEVQQADYENGLLKIELQRIIPEEKMPRQIPIGQSKSIKNIESSKIVNS” as the sequence, how does the protein production read?
Answer: failed

Question: For “MLNEIVVFFSILVSSWNIYNSALSFYGLTWRVNQKIEYSDKTFSILVPAKNEEKVLGRLLDRLINQEYDKSKYEIIVVEDGSTDRTFQICKNYEENYDNVRCVKLDKSNVPNGKSRALNYAMKLAKFDIIGVFDADTFPRLDVLSYVSGSFDSDNVVAVQGKLIPINVRESIIARFASLEELFNEYSIGGRARFGLFVPLEGTCTFVKKSIIEEMGGWNEYSLTEDLDLSVKLTSAGYKIMYNPNVVAWREVASSLRWLIKQRLRWYRGHFEISLSMPKKIDPRIFDGILLIGTPIFMLMNLVNYSLVLIYQTPLFVVTMVIVSTATLLSFITAVGISRKHLIEYQYSILSLIYMNFVMLLNVTAVFLEIVRVPRVWIKTERSGKISVPEV”, which protein production is on record?
Answer: failed

Question: For “MLNHPTHERLIELGLTGMAKAFEEQRRSPDLEALPFEDRIGLLVDREAAERDTRRLTTRLKIAALRQTACVEDVDLRTPRGIDRAVFAKLVEGRWIDRHENLLVTGATGLGKSWLACALGHKACRDNRSVLYHRVPRLFEALALARGDGRYARLLKSLGRAQLLILDDWGLSVLTAAERRDLLEILEDRHGRASTIVTSQLPVDTWHGAIGDPTVADAILDRLVHNAHRLQLTGESMRKRSAKTITLDGQPEH”, which protein production is on record?
Answer: failed

Question: With “MLNKLMWLTGKAQEDWIEKILHLRQKIWPDYQRIKNDTLFKLYSHYPLYQWLSHYNGEVVAVINSLPVALDQSLDNLPQEGLNWVLSHLESTTPLTQSNYLAAVSVTVNPAYQRLGLSKLLLNRLKASAQEAQYKALIVPARPSQKENYPLISLEDYLKWKRVDNTIFDPWLRVHAQLGGKIAYPCQRSRVITANVAQWEQWLGHPLLQTGQYLVKGGLNPITINKEKDIGIYIEPNVWVIHDL” as the sequence, how does the protein production read?
Answer: failed

Question: Which protein production does the source give for “MLNNFLNLELLNISLSYPFLFLITTAIVLLLCSGFWKFHRSFYIGISSLSLIVSAFLILNNANAQGLEAKAFLATLNNDIVSFYASLVILCFSFLYLLMQKEENQGEFYALFLFMIASLLLMVSSSNLVLIFIGLESSSLALYTLIAMRGSDNAISSAIKYFSIAAVGAGFFVMAVAFIYLKTGTLDLSANLALKNEFQKDPMLLGAGVMIFVLCAIKLSLAPFHFWLKDVYYAAHTNLVAFISVVPKVAMLVVVIRLFDFLNNTGFEYIIIVLAIFSMLIGAFAALSQNNIKKMFAYSSVVHSSLVLIACIPLLKEQNFDGILLAIFGYWTLFAFANYAVFMILSNYENNSYESLNGLLVKKPLIAFCLSISVLSLAGIPPFGVFWGKFMILNTVILNGYWYLALFVALSSVIMLYAYLKILIHVLFMKNDRVYNIKFSFIQNFILAFCVCVSIFAILLML” here?
Answer: failed

Question: With “MLNPEQVKRFLETAKQDPLYPAFLLALGTGLRRGEILGLRWQDLDLQKGILQVRQSLIRTREGLKFEEPKTEKSRRQIPLPPSVVAALKRHKAWVNQNKLILGPDYEDHDLVFPVENGRPRDPKGFAEYFNRLLDKAGLPHIRLHDLRHTHATLLLLEGVHPKVVQERLGHSTVSITLDIYSHILPGLQEKAAERIDGLLQPKENPSPKEGTIKLEHHHHHH” as the sequence, how does the protein production read?
Answer: not failed

Question: For “MLNRGGFTYPGQRWKHCINTLLTGGVLLIVSASAYADSNALGYKIPGYELVYDAPMETTLTTPDLRPSDAVWISLFDNAQHTIELGQFYVANQAGTRLDSVLQHLRAAGERGVRIRLLLEEKGLKISTQDTLDQLKTIPNLELRVIPFERLSGGILHAKYLLVDGKQAYMGSQNLDWRALEHIHETGLLIDDPRVVNQISTIFEQDWQAQARLSNGETVPPLPASTDAVDRSGNYLVASPKAFNPAGVMDSEEELPRLLAEAQQQVRIQVMDYVPLSYGPDKTRPFYAVIDNAIRTAAARGVQVELMVSEWSTKMPNIAYLKSLALLPNIQIKTVSIPQVSSGFIPFARVIHSKIMTIDGTKTWIGTSNWSGGYLDNSRNLEMVIQNPAMAQRVDLLYTQLWNSAYAHPLRIDYDYPQPNPGGVKEKEQENTASSTTGGTVTAP”, which protein production is on record?
Answer: failed

Question: For “MLNYLIFFPLISAFVVLLLNRGGVKVFSVVVSFMILALNLDTFADFLQGVSFDYNLSFKILKFFSFHVGVDSIALVLMLLSSLMIFLSFLFLKLEQKALISCIFFLEFAIMGLFSAKDGLLFYIFWEFSLLPLLYIMGVYGKDFRAGVKFFIYAFAGSILMLVALIYQAYLNYQLLNIFTFDLEIWKNNASAANFTEQLLLFGAFFIAFAIKAPLFPLHTWAPKVYANSPILVSVMLVVFKMAPFGFLLFCLPLFPDASVYFMPLIVALCIVSIVYNALIAYRAENIKELIAYSSISHLGVMILGIFSLNALGISGAVFYMFAHGIVTGTLFLMVELLYQRYHTYDISFYHSLAKKAPLFSIFFMLILLASVSLPLTVSFVGEFLILLGIAKINLFYALLAGLVIILGAIYMFAVFRKIFFMQKQSFIEGFSLRFREIVALVCIVVMIFGLGLMPNILLKPIQKDVDNLIKTMNIRAVEQNTLDFLSKIGEANVK”, which protein production is on record?
Answer: failed

Question: For “MLPIASGNDDRNLIRYVDGGRFDEIMLTGDLTGLSSFLTNAGPNARDDFDLTVLMRAAEAGNLMVVARLLDLGANPRLTNPRGVTALHIAAIAGDDGIVECLIDAGAEVDAVDDQGRTPLWNAAAHHLPDSAVVDVLLRAGANVNLRDCNGVSPEDML”, which protein production is on record?
Answer: failed

Question: For “MLPSPSSSSAPTKRIDPSELKRVFQMFDKNGDGRITKEELNDSLENLGIYIPDKDLTQMIHKIDANGDGCVDIDEFESLYSSIVDEHHNDGETEEEDMKDAFNVFDQDGDGFITVEELKSVMASLGLKQGKTLDGCKKMIMQVDADGDGRVNYKEFLQMMKGGGFSSSN”, which protein production is on record?
Answer: not failed

Question: Which protein production does the source give for “MLQNRLNKARSHAEKHDVDAIVFFNMSNVRYLSGFTGSDGAVVLGRDASWFLTDSRYTTQASRQVVGLPTVEYRIKLDGITELVREQGFRRIGFESEHTAFAVYESLRQKLPKTELVPIGEELAQLRLIKDPSECELLSRVARLASEALLSILPLVKPGAVERELALELEFAMRRAGAENASFDFIVASGERGSLPHGRASDKALAAGELVTIDFGARYEGYCSDETVTVAVGVPDERQCQIYGIVKEAHDRAIAAVRPGAELREIDRIARGYIEEQGYGAFFGHGLGHGVGLDVHEKPVVSPRGEGVAAVGMVFTIEPGIYIPGWGGVRIEDTVIVTEDGCRPITMIPKELMIL” here?
Answer: failed

Question: For “MLRFAVLGHPVAHSLSPAMHAFALESLGLEGSYEAWDTPLEALPGRLKEVRRAFRGVNLTLPLKEAALAHLDWVSPEAQRIGAVNTVLQVEGRLFGFNTDAPGFLEALKAGGIPLKGPALVLGAGGAGRAVAFALREAGLEVWVWNRTPQRALALAEEFGLRAVPLEKAREARLLVNATRVGLEDPSASPLPAELFPEEGAAVDLVYRPLWTRFLREAKAKGLKVQTGLPMLAWQGALAFRLWTGLLPDPSGMEEAARRALGV”, which protein production is on record?
Answer: not failed

Question: With “MLRFGFAAVLLVLAGCSAPMGPEALGPGSYQAAPDPGPFLTPADAQRAFPAVVARVEPVAEAICRERTRGVPCDFQIAVDARPGLDPNAFQTLDDYGRPVIGLTLSLISDARNVDELAFVVGHETAHHILGHIPRQRETALTGAVLAGVLAQMGGADAQTIRSVQEFGANVGARSYSKNFELEADGLGTEIAIRAGYDPVHGAQFFTRLPDPGDTFLGSHPPNAQRIAAVRRAAESIGYVSAWLEHHHHHH” as the sequence, how does the protein production read?
Answer: failed

Question: Which protein production does the source give for “MLRFPGQGHHNPDDVVIGLLDLAARVDEALAVQAVAFGLGADEVAVRHQIVLRHLTSPGARAFGATTGDGRLVGFVYGMPNDRTHWWSTVVEPYLRGQGHEDWLDNSFVITELHVHPHFQNHGIGRSLITTITDGAAEPRSILSAIDTESPARGLYHSLGYEDLARQVLFPSAPRPYAVMGAPLPLRRR” here?
Answer: failed

Question: Which protein production does the source give for “MLRGDILDSKRTSIMTRFSSLLLALSVLLLPLRPAQGQPAERTSSLTVEQIMQAPETWIGDWPTNARWHESGQALYFNWNPGGDFPSDSLYKVSRSGGAPQKVSPAERRSNPPTFDGWHHGEHVYTDDFSRKVYAADGDLYLYNRETDTQTRLTDTPAREGNPRFGLEEDRVLFERDDNLFSVHLSTGQIRQLTNVQSGREPQEGAPSPRERFLEEQQLELFETLRERNEEEEQADEARERDREADDPPPPFYTGDAEVSALRMDPTERFVTIAQQSQPDAADPTQVIDYVTESGQADVRRARPKVGIPPGDFALHVQDLKRDTTIAVNLHQLPGAYDVPAYRQEQGAELDSSEAKRALYSYGPYWSADGDHGVLVVRADNNKDRWIARLDPETGDLTVLDRQHDTAWIGGPGISAYGGPGNVGWMPDGEHFYFQSEATGYSHLYTVDVETGETTQLTSGDFEVLDARLSQDGSTWTLTTNRHSPHQQHVERMPADGGDITRLTQMTGTHDAVLSPDGTRLATLYSTTNQPADLYLKDATADADPVRITESPTDEWAAYDWRMPELTRFEASDGVEVPAHVFRPDNPNGAAVFFVHGAGYLQNVLKDFPPYFREYMFHNMLTDLGYTVVDVDYRGSAGYGRDWRTAVYRHMGGRDLQDYVDAAKWVGDTYGIPAERRFIYGGSYGGFMTLMALFTEPEHFGGGAALRSVTDWAHYNDVYTSNILNTPQTDSLAYARSSPIYHAEGLEDPLLMPHGLVDTNVQPQDIFRLTQRLIELGKENWELAIYPVEGHGFEEPSSWTDEYRRIFELIQESVGPERPQN” here?
Answer: failed
